Experimental data reported in patent US20110097312A1, “ANTI-CANCER VACCINES” (BOARD OF REGENTS, THE UNIVERSITY OF TEXAS SYSTEM, priority 2008, published 2011).
One block for each molecule: values may come before it. Ends that are not written are not given here.

Columns and labels:
peptide-loaded T2 cells = assay: Induction of primary CTL responses; cytotoxicity toward peptide-loaded T2 cells
[1] = target: HLA-A2.1 (HLA-A*0201) with β2-microglobulin (human); assay: cell-based or functional assay
[2] = target: HLA-A2.1 (HLA-A*0201) with β2-microglobulin (human); assay: peptide-binding assay: stabilisation of HLA-A2 on T2 cells, fluorescence relative to PR1
HLA-A2 = HLA-A2 (Homo sapiens, UniProt P04439, D140Y/D185E/D98H/E176V/E277Q/G131W/G231S/I119V/I121R/I166T/I218V/L300P/L318F/N151K/N90K/P208A/P217A/Q86G/Q94H/R138H/R169H/T345S); assay: Peptide-binding assay: HLA-A2 stabilization on T2 cells; conditions: HLA-A2 stabilization on T2 cells relative to PR1
Text: (§1) Nonameric peptides derived from cyclin E1 and cyclin E2 and predicted to bind to the HLA-A2 allele have similar amino acid sequences, differing only at position 7. Thus, the binding of CCNE1144-152 (cyclin E1 derived) and […] (cyclin E2 derived) was compared to that of PR1 by a peptide-binding assay. […] In 3 of 7 donors, CCNE1144-152-stimulated CTL lines killed both CCNE1144-152 and CCNE2144-152-pulsed T2 cells but not non-peptide-pulsed T2 cells and irrelevant peptide-pulsed T2 cells. In 4 of 7 same donors, CCNE2144-152-stimulated CTL lines killed both CCNE2144-152 and CCNE1144-152-pulsed T2 cells but not non-peptide-pulsed T2 cells and irrelevant peptide-pulsed T2 cells.

[3] = test system: peptide-pulsed T2 cells, HLA-A2 transfected K562; assay: Elicitation of cyclin E peptide-specific CTL lines and killing of targets; assay type: cell-based, human; conditions: for donors in which peptide-stimulated CTL lines killed CCNE1144-152 and CCNE2144-152-pulsed T2 cells: PBMCs from 7 HLA-A2 positive normal donors
Text: as §1
Thus, each peptide-specific CTLs can recognize both peptides with HLA-A2, but the immunogenicity of each peptide is different between individuals. Moreover, one of 4 CCNE1144-152-stimulated CTL lines which killed CCNE1144-152-pulsed T2 cell killed HLA-A2 transfected K562 leukemic cell line which is over-expressing cyclin E1 protein, but not non-transfected K562 leukemic cell line. Thus, CCNE1144-152-specific CTL can distinguish leukemic cell lines from normal PBMCs. From the data, it was concluded that cyclin E1/E2 derived peptides are tumor antigens, because 1) cyclin E1/E2 are highly over-expressed in hematological malignancy, 2) cyclin E1/E2 peptides can sufficiently bind to HLA-A2 to stimulate CTL and 3) CCLE1144-152 specific CTL preferentially kills leukemic cell lines HLA-A2 restrictively.

myeloid leukemia = conditions: human, in vivo
Text: PR1 peptide vaccine can elicit PR1-CTL immunity in patients with myeloid leukemia. […] To test this in refractory leukemia patients, a phase I/II vaccine study was initiated. HLA-A2+ patients with CML (interferon-resistant or relapsed after BMT), AML (smoldering relapse or ≧2nd CR) or MDS (RAEB or RAEBt) with no detectable antibodies to proteinase 3 (no detectable cANCA) were eligible. Patients that relapsed after BMT or those ineligible for BMT were also eligible for study. Pregnant patients, HIV+ patients, and those with known vasculitis were excluded. Patients were required to have immunosuppression (i.e. cyclosporine, steroids) discontinued 4 weeks prior to study entry.
Primary endpoints were (1) toxicity assessment including the induction of autoimmunity resembling Wegener's granulomatosis, the systemic vasculitis associated with cANCA antibodies; and (2) induction of an immune response assessed by cytokine flow cytometry (CFC) of γ-IFN and PR1/HLA-A2 tetramer staining of PBMC before and 3 weeks after the last vaccination. Secondarily, clinical responses were assessed by standard criteria with bone marrow biopsy, cytogenetic studies (standard chromosome banding) and molecular studies (PCR for bcr-abl or other known abnormalities such as t(15;17), inv16, etc.) 3 weeks after the last vaccination. Patients were seen and evaluated in clinic every 3 weeks during the study period. […]

[4] = target: T1, HLA-A2.1 (HLA-A*0201) with β2-microglobulin (human); assay: T2 cell HLA-A2.1 stabilisation (flow cytometry with BB7.2) and I125-β2-microglobulin dissociation from the heterotrimer
T1 construct: In the first assay HLA-A2.1 stood on TAP-deficient T2 cells; In the second assay it was a heterotrimer of HLA-A2.1 heavy chain, peptide and I125-labeled β2-microglobulin in solution

Molecule: CC[C@H](C)[C@H](NC(=O)[C@H](CCCNC(=N)N)NC(=O)[C@H](CCSC)NC(=O)[C@@H](NC(=O)[C@H](CCC(N)=O)NC(=O)[C@H](CCC(=O)O)NC(=O)[C@H](Cc1ccccc1)NC(=O)[C@H](CC(C)C)NC(=O)[C@@H](N)CCCNC(=N)N)C(C)C)C(=O)O [MY4, RLFEQVMRI]
cytotoxicity of CTL line generated against the peptide toward MY2-loaded targets (peptide-loaded T2 cells): did not demonstrate any significant cytotoxicity

specific lysis of HLA-A2+ MCF-7 cells by PR1-CTL (calcein AM, 4 hours co-incubation) [1]: 17%
Molecule: BB7.2, mouse monoclonal antibody against HLA-A2.1

FI CCNE1144-152/FI PR1 [2]: 1.01
Molecule: CCNE1144-152 (cyclin E1 derived nonameric peptide) (from UniProt P24864 147-155)

FI peptide/FI PR1 (HLA-A2): 1.008
Molecule: CCNE1144-152: Nonameric peptide derived from cyclin E1, predicted to bind to the HLA-A2 allele (ILLDWLMEV)
peptide-stimulated CTL lines that killed HLA-A2 transfected K562 but not non-transfected K562 [3]: one of 4
donors in which peptide-stimulated CTL lines killed CCNE1144-152 and CCNE2144-152-pulsed T2 cells [3]: 3 of 7

FI peptide/FI PR1 (HLA-A2): 1.189
Molecule: CCNE2144-152: Nonameric peptide derived from cyclin E2, predicted to bind to the HLA-A2 allele (ILLDWLLEV)
donors in which peptide-stimulated CTL lines killed CCNE1144-152 and CCNE2144-152-pulsed T2 cells [3]: 4 of 7

Molecule: KLLLALAGL [MY2]
specific lysis of cognate peptide-loaded target cells by CTL line generated against the peptide (peptide-loaded T2 cells): high specific lysis

Molecule: VLQELNVTV [PR1, VLQELNVTV]
dose levels eliminated on the basis of toxicity in Phase I (myeloid leukemia): none of the doses were eliminated on the basis of toxicity

binding result [4]: binds
Molecule: KLLLALAGL [MY2 peptide (KLLLALAGL) from myeloperoxidase]

binding result [4]: binds
Molecule: LLSYFKQPV [MY3 peptide (LLSYFKQPV) from myeloperoxidase]

binding result [4]: binds
Molecule: SLWRRPFNV [MY1 peptide (SLWRRPFNV) from myeloperoxidase]

binding result [4]: binds
Molecule: VLQELNVTV [PR1 peptide (VLQELNVTV), HLA-A2.1-restricted nonamer derived from proteinase 3]

binding result [4]: binds
Molecule: LIQPFMFRL [MY5 peptide (LIQPFMFRL) from myeloperoxidase]

binding result [4]: binds
Molecule: RLFEQVMRI [MY4 peptide (RLFEQVMRI) from myeloperoxidase]
